According to patent US20170096461A1 (IMMATICS BIOTECHNOLOGIES, published 2017):

Molecular target: T1, HLA-A*02:01 (peptide-receptive MHC class I monomer after UV-ligand exchange) (human)
T1 construct: Monomers made with a UV-sensitive peptide that is cleaved by UV and exchanged for the test peptide; captured on streptavidin plates; also called MHC molecules
Assay: UV-ligand exchange + anti-b2m ELISA; exchange yield grade: + >=10%, ++ >=20%, +++ >=50, ++++ >=75%
Source text: Candidate peptides for T cell based therapies according to the present invention were further tested for their MHC binding capacity (affinity). The individual peptide-MHC complexes were produced by UV-ligand exchange, where a UV-sensitive peptide is cleaved upon UV-irradiation, and exchanged with the peptide of interest as analyzed. Only peptide candidates that can effectively bind and stabilize the peptide-receptive MHC molecules prevent dissociation of the MHC complexes. To determine the yield of the exchange reaction, an ELISA was performed based on the detection of the light chain (β2m) of stabilized MHC complexes. The assay was performed as generally described in Rodenko et al. (Rodenko et al., 2006).
96 well MAXISorp plates (NUNC) were coated over night with 2 ug/ml streptavidin in PBS at room temperature, washed 4× and blocked for 1 h at 37° C. in 2% BSA containing blocking buffer. Refolded HLA-A*02:01/MLA-001 monomers served as standards, covering the range of 15-500 ng/ml. Peptide-MHC monomers of the UV-exchange reaction were diluted 100 fold in blocking buffer. Samples were incubated for 1 h at 37° C., washed four times, incubated with 2 ug/ml HRP conjugated anti-β2m for 1 h at 37° C., washed again and detected with TMB solution that is stopped with […]. Absorption was measured at 450 nm. Candidate peptides that show a high exchange yield (preferably higher than 50%, most preferred higher than 75%) are generally preferred for a generation and production of antibodies or fragments thereof, and/or T cell receptors or fragments thereof, as they show sufficient avidity to the MHC molecules and prevent dissociation of the MHC complexes.

B1: peptide AMLEEVNYI (SEQ ID NO: 1) (peptide)
peptide: AMLEEVNYI
- peptide exchange yield: 50 to 75%

B2: peptide MLFEGLDLVSA (SEQ ID NO: 12) (peptide)
peptide: MLFEGLDLVSA
- peptide exchange yield: 50 to 75%

B3: peptide SMYDKVLML (SEQ ID NO: 105) (peptide)
peptide: SMYDKVLML
- peptide exchange yield: ≥ 75%

B4: peptide KMPDDVWLV (SEQ ID NO: 106) (peptide)
peptide: KMPDDVWLV
- peptide exchange yield: ≥ 75%

B5: peptide AMYGTKLETI (SEQ ID NO: 107) (peptide)
peptide: AMYGTKLETI
- peptide exchange yield: ≥ 75%

B6: peptide ILLDDQFQPKL (SEQ ID NO: 108) (peptide)
peptide: ILLDDQFQPKL
- peptide exchange yield: ≥ 75%

B7: peptide SLFERLVVL (SEQ ID NO: 109) (peptide)
peptide: SLFERLVVL
- peptide exchange yield: ≥ 75%

B8: peptide GLTETGLYRI (SEQ ID NO: 110) (peptide)
peptide: GLTETGLYRI
- peptide exchange yield: 50 to 75%

B9: peptide FLPEAPAEL (SEQ ID NO: 111) (peptide)
peptide: FLPEAPAEL
- peptide exchange yield: 50 to 75%

B10: peptide LLLPGVIKTV (SEQ ID NO: 112) (peptide)
peptide: LLLPGVIKTV
- peptide exchange yield: 50 to 75%

B11: peptide ALLEPGGVLTI (SEQ ID NO: 114) (peptide)
peptide: ALLEPGGVLTI
- peptide exchange yield: 50 to 75%

B12: peptide ALLPSDCLQEA (SEQ ID NO: 115) (peptide)
peptide: ALLPSDCLQEA
- peptide exchange yield: 50 to 75%

B13: peptide FLTAFLVQI (SEQ ID NO: 13) (peptide)
peptide: FLTAFLVQI
- peptide exchange yield: 50 to 75%

B14: peptide ALLVRLQEV (SEQ ID NO: 116) (peptide)
peptide: ALLVRLQEV
- peptide exchange yield: ≥ 75%

B15: peptide FLLDSAPLNV (SEQ ID NO: 117) (peptide)
peptide: FLLDSAPLNV
- peptide exchange yield: ≥ 75%

B16: peptide KLPSFLANV (SEQ ID NO: 118) (peptide)
peptide: KLPSFLANV
- peptide exchange yield: 50 to 75%

B17: peptide SLAADIPRL (SEQ ID NO: 120) (peptide)
peptide: SLAADIPRL
- peptide exchange yield: 50 to 75%

B18: peptide YMLEHVITL (SEQ ID NO: 121) (peptide)
peptide: YMLEHVITL
- peptide exchange yield: 50 to 75%

B19: peptide SMMPDELLTSL (SEQ ID NO: 122) (peptide)
peptide: SMMPDELLTSL
- peptide exchange yield: 50 to 75%

B20: peptide KLDKNPNQV (SEQ ID NO: 123) (peptide)
peptide: KLDKNPNQV
- peptide exchange yield: 50 to 75%

B21: peptide SLITDLQTI (SEQ ID NO: 124) (peptide)
peptide: SLITDLQTI
- peptide exchange yield: 50 to 75%

B22: peptide LLSEPSLLRTV (SEQ ID NO: 125) (peptide)
peptide: LLSEPSLLRTV
- peptide exchange yield: 50 to 75%

B23: peptide AAASLIRLV (SEQ ID NO: 126) (peptide)
peptide: AAASLIRLV
- peptide exchange yield: 10 to 20%

B24: peptide ILIETKLVL (SEQ ID NO: 14) (peptide)
peptide: ILIETKLVL
- peptide exchange yield: 50 to 75%

B25: peptide SLLTAISEV (SEQ ID NO: 15) (peptide)
peptide: SLLTAISEV
- peptide exchange yield: 50 to 75%

B26: peptide VILDLPLVI (SEQ ID NO: 16) (peptide)
peptide: VILDLPLVI
- peptide exchange yield: 50 to 75%

B27: peptide SLMLVTVEL (SEQ ID NO: 17) (peptide)
peptide: SLMLVTVEL
- peptide exchange yield: 50 to 75%

B28: peptide ALGEISVSV (SEQ ID NO: 18) (peptide)
peptide: ALGEISVSV
- peptide exchange yield: 50 to 75%

B29: peptide VLLTTAVEV (SEQ ID NO: 19) (peptide)
peptide: VLLTTAVEV
- peptide exchange yield: 50 to 75%

B30: peptide MLDEILLQL (SEQ ID NO: 20) (peptide)
peptide: MLDEILLQL
- peptide exchange yield: 50 to 75%

B31: peptide TMEEMIFEV (SEQ ID NO: 21) (peptide)
peptide: TMEEMIFEV
- peptide exchange yield: 50 to 75%

B32: peptide VMFNFPDQATV (SEQ ID NO: 2) (peptide)
peptide: VMFNFPDQATV
- peptide exchange yield: 50 to 75%

B33: peptide LLPEKSWEI (SEQ ID NO: 22) (peptide)
peptide: LLPEKSWEI
- peptide exchange yield: 50 to 75%

B34: peptide YQIDTVINL (SEQ ID NO: 23) (peptide)
peptide: YQIDTVINL
- peptide exchange yield: 50 to 75%

B35: peptide FLMEEVHMI (SEQ ID NO: 24) (peptide)
peptide: FLMEEVHMI
- peptide exchange yield: 50 to 75%

B36: peptide GLSETILAV (SEQ ID NO: 25) (peptide)
peptide: GLSETILAV
- peptide exchange yield: ≥ 75%

B37: peptide KMLDEAVFQV (SEQ ID NO: 26) (peptide)
peptide: KMLDEAVFQV
- peptide exchange yield: ≥ 75%

B38: peptide SLDIITITV (SEQ ID NO: 27) (peptide)
peptide: SLDIITITV
- peptide exchange yield: ≥ 75%

B39: peptide ILVSQLEQL (SEQ ID NO: 28) (peptide)
peptide: ILVSQLEQL
- peptide exchange yield: ≥ 75%

B40: peptide KMLGLTVSL (SEQ ID NO: 30) (peptide)
peptide: KMLGLTVSL
- peptide exchange yield: 50 to 75%

B41: peptide RLLQDPVGV (SEQ ID NO: 31) (peptide)
peptide: RLLQDPVGV
- peptide exchange yield: ≥ 75%

B42: peptide ALTSLELEL (SEQ ID NO: 32) (peptide)
peptide: ALTSLELEL
- peptide exchange yield: 50 to 75%

B43: peptide VLAEIDPKQLV (SEQ ID NO: 3) (peptide)
peptide: VLAEIDPKQLV
- peptide exchange yield: 50 to 75%

B44: peptide LVFEGIMEV (SEQ ID NO: 34) (peptide)
peptide: LVFEGIMEV
- peptide exchange yield: 50 to 75%

B45: peptide FMGDVFINV (SEQ ID NO: 35) (peptide)
peptide: FMGDVFINV
- peptide exchange yield: ≥ 75%

B46: peptide RMDGAVTSV (SEQ ID NO: 36) (peptide)
peptide: RMDGAVTSV
- peptide exchange yield: 50 to 75%

B47: peptide SLFYNELHYV (SEQ ID NO: 37) (peptide)
peptide: SLFYNELHYV
- peptide exchange yield: 50 to 75%

B48: peptide GLISSLNEI (SEQ ID NO: 38) (peptide)
peptide: GLISSLNEI
- peptide exchange yield: ≥ 75%

B49: peptide GLDPTQFRV (SEQ ID NO: 39) (peptide)
peptide: GLDPTQFRV
- peptide exchange yield: 50 to 75%

B50: peptide GLLEVQVEV (SEQ ID NO: 40) (peptide)
peptide: GLLEVQVEV
- peptide exchange yield: 50 to 75%

B51: peptide KAYQELLATV (SEQ ID NO: 41) (peptide)
peptide: KAYQELLATV
- peptide exchange yield: 50 to 75%

B52: peptide GLLEDERALQL (SEQ ID NO: 42) (peptide)
peptide: GLLEDERALQL
- peptide exchange yield: 50 to 75%

B53: peptide YLWSEVFSM (SEQ ID NO: 43) (peptide)
peptide: YLWSEVFSM
- peptide exchange yield: 50 to 75%

B54: peptide GLLDPGMLVNI (SEQ ID NO: 4) (peptide)
peptide: GLLDPGMLVNI
- peptide exchange yield: 50 to 75%

B55: peptide ALIVGIPSV (SEQ ID NO: 44) (peptide)
peptide: ALIVGIPSV
- peptide exchange yield: ≥ 75%

B56: peptide SLSGEIILHSV (SEQ ID NO: 45) (peptide)
peptide: SLSGEIILHSV
- peptide exchange yield: 20 to 50%

B57: peptide ALWVAVPKA (SEQ ID NO: 46) (peptide)
peptide: ALWVAVPKA
- peptide exchange yield: 50 to 75%

B58: peptide GLLEALLKI (SEQ ID NO: 47) (peptide)
peptide: GLLEALLKI
- peptide exchange yield: 50 to 75%

B59: peptide SLIGLDLSSV (SEQ ID NO: 48) (peptide)
peptide: SLIGLDLSSV
- peptide exchange yield: 50 to 75%

B60: peptide RLALNTPKV (SEQ ID NO: 49) (peptide)
peptide: RLALNTPKV
- peptide exchange yield: 20 to 50%

B61: peptide FLLSQIVAL (SEQ ID NO: 50) (peptide)
peptide: FLLSQIVAL
- peptide exchange yield: 50 to 75%

B62: peptide ILDEAGVKYFL (SEQ ID NO: 51) (peptide)
peptide: ILDEAGVKYFL
- peptide exchange yield: 50 to 75%

B63: peptide ILASFMLTGV (SEQ ID NO: 52) (peptide)
peptide: ILASFMLTGV
- peptide exchange yield: ≥ 75%

B64: peptide LLSEEHITL (SEQ ID NO: 53) (peptide)
peptide: LLSEEHITL
- peptide exchange yield: ≥ 75%

B65: peptide SLQSLIISV (SEQ ID NO: 5) (peptide)
peptide: SLQSLIISV
- peptide exchange yield: ≥ 75%

B66: peptide HLFDIILTSV (SEQ ID NO: 54) (peptide)
peptide: HLFDIILTSV
- peptide exchange yield: ≥ 75%
